Experimental data reported in patent US20030021792A1.

Legend:
[1] = target: rat dipeptidyl peptidase IV (rat) (UniProt P14740); experiment: Europium-labelled antibody injected in rat, time-resolved fluorescence of lung homogenate
[2] = target: rat dipeptidyl peptidase IV (rat) (UniProt P14740); experiment: 125I-labelled antibody injected in rat, scintigraphy of tissues
[3] = target: rat MadCam-1 (rat) (UniProt O70540); experiment: Europium-labelled antibody injected in rat, time-resolved fluorescence of small intestine homogenate
[4] = target: rat MadCam-1 (rat) (UniProt O70540); experiment: Europium-labelled antibody injected in rat, time-resolved fluorescence of pancreas homogenate

UniProt P14740, sequence (P14740 whole entry R38A/Q470G): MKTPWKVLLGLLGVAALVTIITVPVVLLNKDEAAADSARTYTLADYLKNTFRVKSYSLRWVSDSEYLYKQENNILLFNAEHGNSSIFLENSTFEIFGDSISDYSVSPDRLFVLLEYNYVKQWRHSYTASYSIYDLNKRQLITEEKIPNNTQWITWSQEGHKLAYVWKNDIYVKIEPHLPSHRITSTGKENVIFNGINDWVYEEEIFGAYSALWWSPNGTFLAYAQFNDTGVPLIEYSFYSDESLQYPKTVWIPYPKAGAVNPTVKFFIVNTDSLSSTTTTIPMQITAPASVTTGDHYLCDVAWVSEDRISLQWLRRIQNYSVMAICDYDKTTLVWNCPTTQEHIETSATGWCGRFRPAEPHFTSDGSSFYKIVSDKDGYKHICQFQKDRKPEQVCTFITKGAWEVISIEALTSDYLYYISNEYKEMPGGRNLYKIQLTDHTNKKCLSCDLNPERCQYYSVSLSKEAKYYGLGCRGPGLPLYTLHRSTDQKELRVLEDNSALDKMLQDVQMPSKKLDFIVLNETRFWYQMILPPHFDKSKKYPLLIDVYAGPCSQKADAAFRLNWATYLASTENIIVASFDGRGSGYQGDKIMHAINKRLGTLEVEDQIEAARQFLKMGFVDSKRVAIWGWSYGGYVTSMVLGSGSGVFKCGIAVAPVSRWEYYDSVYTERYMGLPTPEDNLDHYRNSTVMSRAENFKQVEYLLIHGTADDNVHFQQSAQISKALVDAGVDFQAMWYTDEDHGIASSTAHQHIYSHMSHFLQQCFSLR
UniProt O70540, sequence (O70540 20-394 limits assumed): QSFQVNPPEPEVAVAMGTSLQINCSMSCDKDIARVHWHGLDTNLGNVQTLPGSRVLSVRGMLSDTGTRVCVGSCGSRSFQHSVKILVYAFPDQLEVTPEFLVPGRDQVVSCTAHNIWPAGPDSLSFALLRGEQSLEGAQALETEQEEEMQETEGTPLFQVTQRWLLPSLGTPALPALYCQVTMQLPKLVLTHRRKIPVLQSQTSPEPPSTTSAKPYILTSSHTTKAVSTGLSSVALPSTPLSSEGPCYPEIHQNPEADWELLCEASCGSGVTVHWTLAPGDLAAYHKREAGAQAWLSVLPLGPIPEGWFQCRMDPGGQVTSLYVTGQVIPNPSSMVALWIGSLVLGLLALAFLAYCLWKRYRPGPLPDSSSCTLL

percent of injected dose localized in the lungs (5 µg dose, 30 minutes) (% of injected dose) [1]	percent of injected dose localized in the lungs (5 µg dose, 6 hours) (% of injected dose) [1]	antibody per gram of lung tissue (5 µg dose, 5 minutes) (µg per gram of tissue) [2]	antibody per gram of lung tissue (5 µg dose, 8 hours) (µg per gram of lung tissue) [2]	percent of injected dose localized in the lung (1 µg dose, 2 hours) (% of injected dose) [2]	percent of injected dose localized in the lung (1 µg dose, 8 hours) (% of injected dose) [2]	percent of injected dose localized in the lung (5 µg dose, 5 minutes) (% of the initial antibody dose) [2]	percent of injected dose in the small intestine (5 µg dose, 6 hours) (% of injected dose) [3]	percent of injected dose localized to the pancreas (5 µg dose, 6 hours) (% of injected dose) [4]	Substance
15	7	> 0.4	0.7	22	30	20	–	–	OX-61 (Pharmingen), mouse monoclonal antibody specific for DPP-4
–	–	–	–	–	–	–	> 5	3	OST-2 (Pharmingen), mouse monoclonal antibody that recognizes rat MadCam-1
